From article PMC8022333 (The FEBS journal, 2018)

Molecular target: the molecule itself
Assay: crystal structure

B1: vimentin coil 1B (residues 153–238) (domain or fragment)
chain: not shown
stoichiometry N: 8
